Target: Human α-thrombin (Haematologic Technologies, Inc.) (human)
Experiment: cell-based or functional assay

time to completion of the fluorescence increase (dissociation of the TBA15-F9+TBA29-D9+thrombin complex) after adding 1940 nM ATIII to 200 nM complex: 600 s
Substance: Antithrombin (Grifols Therapeutics Inc.) (from UniProt P01008 33-464)

Source: patent US20250076264A1
